Experimental data as given in paper PMC8948278 (2022).

Target: Recombinant SARS-CoV-2 S trimer protein (ACRO Biosystems SPN-C52H9) (SARS-CoV-2, UniProt P0DTC2)
Assay: SPR

B1: KIH format bivalent MW01 (MW01/KIH) (antibody, V domains shown)
VH: EVQLVQSGAEVKKPGSSVKVSCKASGGTFSSFSISWVRQAPGQGLEWMGRIIPVLGIANYAQEVQGRVTITADKSTSTAYMELSSLRSEDTAVYFCTTDRFVEPATGPFFDYWGQGTLVTVSS
VL: EIVMTQSPATLSVSPGERATLSCRASQSVSSNLAWYQQKPGQAPRLLIYGASTRATGIPARFSGSGSGTEFTLTISSLQSEDFAVYYCQQYSNWLTFGGGTKVEIK
koff: 0.000408 s⁻¹
